Source: the DeepSol protein solubility set

assay: soluble on expression in E. coli; label from the status in PepcDB or PDB records

Soluble on expression in E. coli, not soluble:
MGSDKIHHHHHHFLDELPDNRTELNSEQKIAKMLVSAYPEGSANELFELYSDNTDDNSARYSYYKLSEEECYNWKDTQEEYQDTPTNLWETHYIAIASANMALEEIEKRGNPESLMPQRGEALVCRAYNHFVLANIFCNAYNTHASQELGIPYMTKVETTVQPQYGRGTLQETYEKIEKDLLDGMALISDDSYSVPKYHFTRKAAYAFAARFYLYYMKPDFSNCDEVIKYADRVLGSDPAAELRDWEALGKLSANDNVQPDAYIASTSKANLLIGSTVSNWGIILSNYMTGKRYLHNKLIASYETSRSSGLWGIPDRMYMQPFTTSGYECSMLRKGGYYAGDYLYYMPVIFSTDETLLCRAEAYTLKKNYPMAAADLTTWEKAYTSNKQTLTPGMINEYYDKMDYYNPTQNPTPKKKLQPDFTIESGIQENFIHCILHMRRIATLHEGLRWPDIKRYGIVIYRRSIANNNIVVTDEMPVNDARRAMQIPKSVVLAGMQPNPRTEN
FDVERKAAPAIAESDLRVASFNVLNYFTSVADSGNNNPTGQNRGATNHDEFLIQQAKIVSAMNKMDADIIGLMEVENNGFGDGSAVQNLVDALNAEIDDADDHYTYVEIADKDKYQEEYFGSDAIMVAILYRAKVVTPKEAAKVIFTPEQHIAENTITRKDGAESNPAYDKYQRHSLLQTFTVQESGEDLSIVVNHFKSKGSECIEEWIAGVEDSEPADLQGNCNNFRVSAAHAVGEALKDVKGDVLLMGDLNAYGMEDPLLTLTDYSKEKYGRDIYTAGYTTINGGELQVEQTQIKQGYGLNNLNTLLHGTDTFSYTYSGELGNLDHALASNSLAQKVVAIEDWHINSLESNLFEYGSKYTGDMPKYKDAFSASDHDPVIIAIDLPDTDIDLP
GHHHHHHAIAENLYFQSTGNAGEWCLMESDPGVFTELIKGFGCRGAQVEEIWSLEPENFEKLKPVHGLIFLFKWQPGEEPAGSVVQDSRLDTIFFAKQVINNACATQAIVSVLLNCTHQDVHLGETLSEFKEFSQSFDAAMKGLALSNSDVIRQVHNSFARQQMFEFDTKTSAKEEDAFHFVSYVPVNGRLYELDGLREGPIDLGACNQDDWISAVRPVIEKRIQKYSEGEIRFNLMAIVSDRKMIYEQKIAELQRQLAEEPMDTDQGNSMLSAIQSEVAKNQMLIEEEVQKLKRYKIENIRRKHNYLPFIMELLKTLAEHQQLIPLVEKAKEKQNAKKAQETK
MSLSRLLPDPDVAGAWMVRVGDADQSWIDPDDPTRLEFDYMQRIADHLDVHRPAGERMRVIHLGGAGMCLARYVAATRPTSPQIVCEPDAELTAEVRLKAPLPVRSGIKVRPVDGRSGVAAMREDFADVVILDAFDGARVPGDLVTVEFFADVSRILHSDGIGVANLADSAPLVWTKRVVRSVKEVFSNVCMAAEPATLKGRRYGNIVLAASNGPLHEEDLTRRCSGAAVPFRFIAGDALAKLLADARPFHDGDTESSEGHHHHHH
MGSDKIHHHHHHMAQEALCRKRHEGFNGSMVGVSLADLIQLKGTNRFSGCISVEFGGRCGVIFFQDGEIVHAEKGSCEGEEALQRIMRWPGGRFTAYPHLATDRHSIRKNRQHLLLDAHRAMDERHRHVDPKGERAEQTPLRERIRAIGMVSDAITLDFDGVPTDEKSPSADRLAAGACFLARLADRIGSRLGTGSPTSMVLEGTREHLFIYTGKHHLLAVAAGADHQPPMVEEAIRRAVQTA
MSLNFYYATSILIKEVVVSTKWLLGISLMLSTVAQANENSNQDTDISIPSPWKHQVEFGYQAHSGNTESESLNSRLKSEYTMGRHRTYGEWKFYKLDKNGKEDKRQSTFAFQSDYKLGPKTYLYGSFYGTNSRYTAYFKDHTLSGGLGYQFAYTDEMVLELELGPGFRYQKPNLDEIDDDDIVFPDLVQEAIFRSNLKAEWQALNNLRFEAEMTMVSGRSNTSLDSNISLTNDITDHIALKIRQSRQYHNRMPEGLSKADSVISVNLLFEFEGHHHHHH
MITPSRYPGIYIAPLSSEPTAAHTFKEQAEKALDHISAGPSGRELLQEISKLASKKDRKVTLKEIEINNQCYTDAVLSRRQLEKYEPEDFNENRRIASRLSRKGTFTKGEGSNAIIGWSPDKASIRLNQNGSPLRLGMDNDDKITTLAHELVHVRHVLSGSSLADDGDRYNPRTGSGKEELRAVGLDKYSYSLTKEPSENSIRAEHGLPLRMKYRPHQ
